From patent US5238920A, “Pulmonary surfactant protein fragments” (Abbott Laboratories, priority 1989, dated 1993)
“And” between values parts separate entries of the source, which are not always exact repeats. Equal values may be shown once. No end group written: not given here.

What was measured:
Type in all cases: physicochemical
[1] = Adsorption (surface tension lowering), modified Wilhelmy surface balance; conditions: equilibrium adsorption after three (3) minutes spreading time; peptide 0.5 mg/ml (2% of solids)
Description: A procedures similar to that described by Notter, et al., Petaitric Res. 16, 515-519, (1982) was employed to determined the absorption rate in the absence of diffusion resistance. The modified Wilhelmy surface balance as described above was used. However, instead of using a Langmuir trough a round Teflon dish (5.1 cm diameter) was employed. The subphase, 70 ml of 0.15 M NaCl, was allowed to equilibrate to 37° C. in the incubator and was continuously stirred with a Teflon coated magnetic stirrer. An aliquot of the peptide/lipid fragment admixture containing 5 mg of total phospholipid was dispersed in 10 ml of 0.15 M NaCl by vortexing for 10 seconds. This dispersion was then added to the saline subphase. Surface tension lowering was monitoring using a strip chart recorder connected to the electro balance output.

[2] = Pulsating bubble surfactometer (PBS), surface tension at air-aqueous interface; conditions: after 5 minutes pulsation (100 cycles), 20 cycles/minute, 37 C, 1 mg/ml phospholipid in 0.15 M NaCl; peptide 2% of phospholipids
Description: The Pulsating Bubble Surfactometer (PBS). The PBS equipment (Electrtonetics, Buffalo, N.Y.) used was essentially equivalent to that described in detail by G. Enhorning, J. Appld, Physiol. 43, 198-203, (1977). Recordings were made of the pressure gradient across the wall of a small air bubble, communicating with ambient air by means of a narrow chimney stack, but otherwise entirely surrounded by a 40 ul volume of the peptide/lipid admixture. The admixture concentration employed for these studies was 1 mg/ml total phospholipid (0.02 mg/ml total peptide) and the diluent was 0.15 M naCl. Immediately prior to loading the sample chamber, the diluted samples were sonicated for 15 seconds to remove any gas nuclei.
The pressure drop across the air-water interface was measured during pulsation by a pressure transducer, and the corresponding surface tension determined through the application of Young's law and the Laplace equation. Measurements were all made at 37° C. and the bubble pulsed at 20 cycles/minute to render respectively a maximum (1.1 mm) and a minimum (0.8 mm) bubble diameter. (This compression/expansion corresponds to a 50% change in the surface area of the air-water interface).

[3] = Relative surface activity by dilution studies on modified Wilhelmy balance-Langmuir trough; conditions: criterion: minimum dynamic surface tension less than 5 dynes/cm for each of seven consecutive cycles; phospholipid 25 mg/ml, 675 ug applied
Description: For the purpose of this comparison "surface activity" is defined as follows: For any given peptide concentration, the admixture is required to result in a minimum dynamic surface tension of less than 5 dynes/cm for each of seven consecutive expansion/compression cycles.
The admixtures were diluted with the synthetic lipid mixture as described in Example 4, so as to maintain the lipid concentration in all cases at 25 mg/ml. For these studies a standard volume of 27 ul, corresponding to a total phospholipid mass of 675 ug, was applied to the Langmuir Trough with maximum dimensions of 445 sq. cm.

[4] = Dynamic surface tension versus compressed surface area, modified Wilhelmy balance-Langmuir trough; conditions: 675 ug phospholipid on trough at 445 sq. cm, peptide 0.5 mg/ml (2% of solids) in DPPC:PG:PA lipids; for Surface tension, Maximum: maximum recorded during seven complete cycles; for Surface tension, Minimum: minimum recorded during seven complete cycles
From the text: The dynamic surface tension lowering properties of the peptide/lipid admixtures were studied using a modified Wilhelmy surface Balance (Langmuir Trough). The instrument consists of an all Teflon trough and movable Teflon ribbon (dam) barrier system which completely contains and defines a variable surface area. Surface area was varied through the use of a constant rate reversible 3-phase motor to drive the Teflon barrier. A Cahn 2000 electrobalance (Cahn Instruments, Cerittos, Calif.) with a sandblasted 1 cm platinum plate and stainless steel hangdown wire was employed to determine the surface tension at the liquid-air interface. The entire apparatus was situated in a thermostated incubator set at 45° C. Surface area-surface tension measurements were made by adding 950 ml of 0.15 M NaCl to the trough. Subphase temperature was controlled during the measurements at 36°-38° C.
For each experiment 27 ul of peptide/lipid admixture was applied in a random array of 13 (.perspectiveto.2 ul) droplets to the surface of the temperature controlled subphase and allowed to spread spontaneously for 3 minutes. (The 27 ul application corresponds to 675 ug of phospholipid). The trough surface area was then cycled from a maximum (445 sq. cm) to a minimum (178 sq. cm) surface area and black to maximum at a cycling rate of 3 cycles/min (compression ratio 2.5:1). The dynamic surface tension vs surface area was recorded for 7 complete compression-expansion cycles for each application.

Row | Molecule | Adsorption [1] | Minimum Surface Tension [2] | Lowest Peptide (Protein) Concentration At Which Surface Active Criteria Are Met [3] | Surface tension, Maximum [4] | Surface tension, Minimum [4]
1 | SP-B(1-40): synthesized SP-B peptide fragment, position 1-40, 40 amino acids | 42.5 dynes/cm | 7.1 ± 0.41 dyne/cm | 15.0 ug/ml and 3.3 uM | 48.5 dynes/cm | < 1 dynes/cm
2 | SP-B(1-60): synthesized SP-B peptide fragment, position 1-60, 60 amino acids (FPIPLPYCWLCRALIKRIQAMIPKGALAVAVAQVCRVVPLVAGGICQCLAERYSVILLDT; ends and bridges not checked; cysteine pairing not given here; UniProt P07988 201-260, looked up, fragment) | 42.0 dynes/cm | 7.2 ± 0.26 dyne/cm | 125.0 ug/ml and 18.9 uM | 47.5 dynes/cm | < 1 dynes/cm
3 | SP-B(12-60): synthesized SP-B peptide fragment, position 12-60, 49 amino acids (RALIKRIQAMIPKGALAVAVAQVCRVVPLVAGGICQCLAERYSVILLDT; ends and bridges not checked; cysteine pairing not given here; UniProt P07988 212-260, looked up, fragment) | 41.0 dynes/cm | 10.3 ± 0.67 dyne/cm | 30.0 ug/ml and 11.4 uM | 49.0 dynes/cm | < 1 dynes/cm
4 | SP-B(27-78): synthesized SP-B peptide fragment, position 27-78, 52 amino acids (LAVAVAQVCRVVPLVAGGICQCLAERYSVILLDTLLGRMLPQLVCRLVLRCS; ends and bridges not checked; cysteine pairing not given here; UniProt P07988 227-278, looked up, fragment) | 40.0 dynes/cm | 4.7 ± 0.26 dyne/cm | 30.0 ug/ml and 5.3 uM | 49.5 dynes/cm | < 1 dynes/cm
5 | SP-B(30-60): synthesized SP-B peptide fragment, position 30-60 (AVAQVCRVVPLVAGGICQCLAERYSVILLDT; ends and bridges not checked; cysteine pairing not given here; UniProt P07988 230-260, looked up, fragment) | 41.0 dynes/cm | 16.9 ± 0.95 dyne/cm | 250.0 ug/ml and 76.7 uM | 52.0 dynes/cm | < 1 dynes/cm
6 | SP-B(1-78): replica of the entire 78 amino acid residue sequence of the native human SP-B protein (peptide, UniProt P07988 201-279, looked up, Pulmonary surfactant-associated protein B synthetic) Pulmonary …: FPIPLPYCWLCRALIKRIQAMIPKGALAVAVAQVCRVVPLVAGGICQCLAERYSVILLDTLLGRMLPQLVCRLVLRCSM | 37.5 dynes/cm | 4.0 ± 0.72 dyne/cm | 15.0 ug/ml and 1.7 uM | 44.0 dynes/cm | < 1 dynes/cm
